T1: Alfin1 (Medicago sativa, UniProt Q40359 Q40359:1-257)
T1 sequence: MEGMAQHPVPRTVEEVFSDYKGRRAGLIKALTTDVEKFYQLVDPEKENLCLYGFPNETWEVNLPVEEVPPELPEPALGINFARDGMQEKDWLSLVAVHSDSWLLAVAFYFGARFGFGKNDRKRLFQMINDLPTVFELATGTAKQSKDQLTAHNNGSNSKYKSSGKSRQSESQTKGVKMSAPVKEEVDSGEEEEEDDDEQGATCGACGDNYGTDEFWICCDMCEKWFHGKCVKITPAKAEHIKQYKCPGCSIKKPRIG

B1: Alfin1 binding sequence SEQ 4 (dsDNA)
DNA 1: GACGCAAAGGGGGTGGGGACGGCGCTTTT
DNA 2: AAAAGCGCCGTCCCCACCCCCTTTGCGTC
B2: Alfin1 binding sequence SEQ 6 (dsDNA)
DNA 1: GACGGGTAGGGTGTGGGGGGTGTTTTATT
DNA 2: AATAAAACACCCCCCACACCCTACCCGTC
B3: Alfin1 binding sequence SEQ 7 (dsDNA)
DNA 1: GACGGGGATAGGTGAGGTGGAGGGACAAT
DNA 2: ATTGTCCCTCCACCTCACCTATCCCCGTC
B4: Alfin1 binding sequence SEQ 8 (dsDNA)
DNA 1: GACGGCAGAAGGGAGAAACGTGGAGAATC
DNA 2: GATTCTCCACGTTTCTCCCTTCTGCCGTC
B5: Alfin1 binding sequence SEQ 9 (dsDNA)
DNA 1: GACGGCGGGAAGGAGTGTGGTAGAGAGCC
DNA 2: GGCTCTCTACCACACTCCTTCCCGCCGTC
B6: Alfin1 binding sequence SEQ 10 (dsDNA)
DNA 1: GACGAAGGAAGGACGGCAGCGTGTTGC
DNA 2: GCAACACGCTGCCGTCCTTCCTTCGTC
B7: Alfin1 binding sequence SEQ 5 (dsDNA)
DNA 1: GACGCAAAGGGGGTGGGGACGGCGCTTTT
DNA 2: AAAAGCGCCGTCCCCACCCCCTTTGCGTC

molecular target: T1, Alfin1; test: DNA sequence that binds Alfin1 in vitro
Source text: (§1) To identify DNA sequences that are recognized by Alfin1 protein, the purified Alfin1 protein was used in the "random DNA binding" assay (See: Rauscher III F. J., Morris J. F., Tournay O. E., Cook D. M., Curran T. *Binding of the Wilm's tumor locus* zinc finger protein to the EGR-1 consensus sequence. Science, 1990; 250, 1259–1262) and the bound DNA purified by four rounds of PCR amplification and binding, followed by cloning of the isolated sequences.

Binding result, binds:
B1, B2, B3, B4, B5, B6

molecular target: T1, Alfin1; test: DNA sequence that binds Alfin1 in vitro; listed identical to SEQ 4
Source text: as §1

Binding result, binds:
B7
